Patent US20130011427A1 (priority 2009, published 2013)

Each substance was assayed on HLA-A2.1 (HLA-A*0201) Tg mice, CD4-depleted splenocytes (assay: not given).
Assay type: cell-based, mouse

Row | Substance | T cell activation of HLA transgenic mice (SFC/10^6) IFN-γ ELISpot, A2 [SFC/10^6]
1 | ATPPGTSDPFPESNSPI [NS3 317-333] | 151 ± 18
2 | CYGGPWKLQHKWNGQDEV [NS3 78-95] | 150 ± 17
3 | DPFPESNSPISDLQTEI [NS3 324-340] | 117 ± 20
4 | ECHTCIYNMMGKREKK [NS5 448-463] | 26 ± 7
5 | EMGANFKASRVIDSRKSV [NS3 413-430] | 130 ± 15
6 | ERKNFLELLRTADLPVWL [NS3 530-547] | 127 ± 10
7 | GQDEVQMIVVEPGKNVK [NS3 91-107] | 156 ± 11
8 | GSVKEDRLCYGGPWKLQH [NS3 70-87] | 174 ± 13
9 | IRYQTSAVPREHNGNEIV [NS3 241-258] | 127 ± 18
10 | IVVEPGKNVKNVQTKPGV [NS3 98-115] | 145 ± 25
11 | KVELGEAAAIFMTATPPG [NS3 304-321] | 94 ± 22
12 | LQHKWNGQDEVQMIVV [NS3 85-100] | 72 ± 9
13 | LQTEIPDRAWNSGYEWI [NS3 336-352] | 167 ± 35
14 | LSTKAACPTMGEAHNDKR [E 68-85] | 372 ± 242
15 | PIVDKNGDVIGLYGNGVI [NS3 138-155] | 159 ± 10
16 | RAWNSGYEWITEYTGKTV [NS3 343-360] | 55 ± 21
17 | THTLWGDGILESDLIIPV [NS1 228-245] | 84 ± 47
18 | TVWFVPSVKMGNEIALCL [NS3 359-376] | 75 ± 44

What follows are substances tested against HLA-A2.1 (HHD monochain) (human; murine) (assay: cell-based or functional assay).

Row | Substance | IFN-γ ELISpot (SFC/10^6)
19 | WNV E 68-85 peptide | 372
20 | WNV E 450-467 peptide | 205
21 | WNV NS1 228-245 peptide | 84
22 | WNV NS1 236-251 peptide | 78
23 | WNV NS2a 160-177 peptide | 63
24 | WNV NS2b 115-131 peptide | 108
25 | WNV NS3 70-87 peptide | 174
26 | WNV NS3 78-95 peptide | 150
27 | WNV NS3 85-100 peptide | 72
28 | WNV NS3 91-107 peptide | 156
29 | WNV NS3 98-115 peptide | 145
30 | WNV NS3 138-155 peptide | 159
31 | WNV NS3 146-162 peptide | 58
32 | WNV NS3 161-177 peptide | 56
33 | WNV NS3 183-200 peptide | 62
34 | WNV NS3 206-223 peptide | 108

Row | Substance | IFN-γ ELISpot (SFC/10^6)
35 | WNV NS3 221-237 peptide | 26
36 | WNV NS3 241-258 peptide | 127
37 | WNV NS3 249-266 peptide | 79
38 | WNV NS3 265-282 peptide | 150
39 | WNV NS3 304-321 peptide | 94
40 | WNV NS3 317-333 peptide | 151
41 | WNV NS3 324-340 peptide | 117
42 | WNV NS3 336-352 peptide | 167
43 | WNV NS3 343-360 peptide | 55
44 | WNV NS3 359-376 peptide | 75
45 | WNV NS3 413-430 peptide | 130
46 | WNV NS3 515-532 peptide | 140
47 | WNV NS3 523-539 peptide | 57
48 | WNV NS3 530-547 peptide | 127
49 | WNV NS5 448-463 peptide | 26

The substances below were run against HLA-DR2 (chimeric HLA-DRA1*0101/DRB1*1501 with I-E domains) (human; murine) (UniProt Q8BHN5) (assay: cell-based or functional assay).
UniProt Q8BHN5, sequence (Q8BHN5 whole entry, stated change not applied): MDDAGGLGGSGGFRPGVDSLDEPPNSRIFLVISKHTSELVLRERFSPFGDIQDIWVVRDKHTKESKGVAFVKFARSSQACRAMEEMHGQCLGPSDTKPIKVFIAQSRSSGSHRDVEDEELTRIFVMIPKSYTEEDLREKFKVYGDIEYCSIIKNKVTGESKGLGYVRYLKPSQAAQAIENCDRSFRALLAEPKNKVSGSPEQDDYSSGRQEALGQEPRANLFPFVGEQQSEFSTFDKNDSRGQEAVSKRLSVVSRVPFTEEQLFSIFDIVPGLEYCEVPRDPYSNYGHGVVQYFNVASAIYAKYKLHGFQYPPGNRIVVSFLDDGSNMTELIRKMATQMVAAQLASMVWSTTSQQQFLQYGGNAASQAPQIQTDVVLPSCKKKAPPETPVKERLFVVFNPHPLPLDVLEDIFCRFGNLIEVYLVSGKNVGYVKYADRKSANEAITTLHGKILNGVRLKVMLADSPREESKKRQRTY

Row | Substance | IFN-γ ELISpot (SFC/10^6)
50 | WNV E 450-467 peptide | 261
51 | WNV E 458-474 peptide | 51
52 | WNV NS1 161-178 peptide | 134
53 | WNV NS2a 6-23 peptide | 563
54 | WNV NS2a 52-66 peptide | 516
55 | WNV NS2a 80-97 peptide | 289
56 | WNV NS2a 128-145 peptide | 384
57 | WNV NS2a 136-154 peptide | 98
58 | WNV NS2a 211-229 peptide | 74
59 | WNV NS2b 39-56 peptide | 47
60 | WNV NS2b 59-75 peptide | 59
61 | WNV NS3 22-38 peptide | 155
62 | WNV NS3 161-177 peptide | 72
63 | WNV NS3 176-192 peptide | 59
64 | WNV NS3 183-200 peptide | 55
65 | WNV NS3 199-216 peptide | 52

Row | Substance | IFN-γ ELISpot (SFC/10^6)
66 | WNV NS3 206-223 peptide | 323
67 | WNV NS3 214-230 peptide | 146
68 | WNV NS3 249-266 peptide | 139
69 | WNV NS3 265-282 peptide | 169
70 | WNV NS3 455-469 peptide | 200
71 | WNV NS3 460-475 peptide | 123
72 | WNV NS3 515-532 peptide | 95
73 | WNV NS3 523-539 peptide | 160
74 | WNV NS3 588-605 peptide | 42
75 | WNV NS4b 30-47 peptide | 89
76 | WNV NS4b 233-250 peptide | 62
77 | WNV NS5 181-198 peptide | 122
78 | WNV NS5 212-229 peptide | 168
79 | WNV NS5 598-615 peptide | 252
80 | WNV prM 114-130 peptide | 101
81 | WNV prM 144-161 peptide | 84

Each substance was assayed on HLA-DR2 (DRB1*1501) Tg mice, CD8-depleted splenocytes (assay: not given).
Assay type: cell-based, mouse

Row | Substance | T cell activation of HLA transgenic mice (SFC/10^6) IFN-γ ELISpot, DR2 [SFC/10^6]
82 | AAQRRGRIGRNPSQV [NS3 455-469] | 200 ± 27
83 | DISWESDAEITGSSERV [NS2b 59-75] | 59 ± 12
84 | EIPDVLNSLAVAWMILRA [NS2a 128-145] | 384 ± 125
85 | ERKILRPRWIDARVYSDH [NS3 588-605] | 42 ± 4
86 | GEFLLDLRPATAWSLYAV [NS4b 30-47] | 89 ± 21
87 | GKTRRILPQIIKEAINRR [NS3 199-216] | 52 ± 6
88 | GLFNPMILAAGLIACDPNR [NS2a 211-229] | 74 ± 23
89 | GLTSTRMFLKVRESNTTE [NS1 161-178] | 134 ± 8
90 | GRIGRNPSQVGDEYCY [NS3 460-475] | 123 ± 4
91 | GWLSCLSITWTLIKNMEK [NS4b 233-250] | 62 ± 6
92 | IDPFQLGLLVVFLATQEV [NS2a 6-23] | 563 ± 41
93 | LAVAWMILRAITFTTTSNV [NS2a 136-154] | 98 ± 22
94 | MATFKIQPVFMVASFLKA [NS2a 80-97] | 289 ± 83
95 | MFAAFVISGKSTDMWIER [NS2b 39-56] | 47 ± 18
96 | NRRLRTAVLAPTRVVAA [NS3 214-230] | 146 ± 29
97 | PAGFEPEMLRKKQITVL [NS3 176-192] | 59 ± 8
98 | REDQRGSGQVVTYALNTF [NS5 598-615] | 252 ± 41
99 | SRNSTHEMYWVSRASGNV [NS5 212-229] | 168 ± 13
100 | STKATRYLVKTESWILR [prM 114-130] | 101 ± 33
101 | SWITQGLLGALLLWMGI [E 458-474] | 51 ± 4
102 | TDVLRYVILVGAAFA [NS2a 52-66] | 516 ± 9
103 | VKVLCPYMPKVIEKMELL [NS5 181-198] | 122 ± 40
104 | VYRIMTRGLLGSYQAGA [NS3 22-38] | 155 ± 22
